From patent US20110064726A1 (published 2011) come the findings set out here.

The target in test [1] is T1, cynomolgus monkey IgE (cynomolgus monkey).
T1 construct: serum was used as the source of IgE; also called cynomolgus IgE; cyno IgE
Description: capture ELISA, antibody coated; Test 1, Cyno 5 serum. On the procedure:
(§1) Wells were washed once with 150 μL/well wash buffer (0.05% Tween-20, Sigma, Cat. No. P7949/TBS) then blocked with 150 μL/well 1% BSA (Sigma, Cat. No. A7030) in TBS for 2 hours at room temperature. Wells were washed twice with 150 μL wash buffer. 50 μL human (in-house donors) or cynomolgus serum (Harlan Sera-Lab Ltd, Loughborough) was added from neat to at least 1:16 dilution in 1% BSA/0.05% Tween-20/TBS diluent buffer. […] Wells were incubated for 2 hours at 25° C. before washing (3×150 μLwash buffer). […] Wells were incubated for 1 hour at 25° C. then washed (3×150 μL wash buffer). Streptavidin-HRP (Amersham Bioscience, Cat. No. RPN 1231) diluted 1:1000 in diluent buffer was added to all wells and incubated for 45 minutes at room temperature. Wells were washed (3×150 μL wash buffer). […] OPD (Dako, Cat. No. S2045) was added to all wells and the color allowed to develop for 10 minutes before stopping the reaction with 50 μl 0.6M H₂SO₄ and the absorbance measured at 490 nm.
In general terms: An ELISA detects its analyte on a solid surface through an enzyme-linked reagent.

The next test has as its target T2, human IgG1 (human, UniProt P01857-1 1-330 = IgG part).
T2 construct: bought preparation coated on the ELISA plate; not shown: bought immunoglobulin, light chain not described
As to the kind of experiment: ELISA, immunoglobulin coated at 4 µg/mL, anti-human IgG2 detection. The protocol:
(§2) Wells were washed 3× with 150 μL wash buffer (0.05% Tween-20 (Sigma, Cat. No. P7949)/PBS) then blocked with 150 μL/well blocking buffer (2.5% BSA (Sigma, Cat. No. A7030)/PBS) for 2 hours at room temperature. Wells were washed 3× with 150 μL wash buffer/well. […] Antibodies were diluted in diluent buffer (PBS/1% BSA/0.05% Tween-20) and this was added to blank control wells (duplicate wells for each secondary antibody used). Antibodies were incubated for 2 hours at room temperature. Wells were washed 3× with 150 μL wash buffer/well. Binding of control antibodies to immunoglobulin was detected with anti-mouse IgG-HRP conjugate (Sigma, Cat. No. A4416) diluted 1:8000 in diluent buffer. 50 μL/well was added to control antibody and blank wells. Wells were incubated for 1 hour at room temperature, then washed 3× with 150 μL wash buffer/well. 50 μl OPD (Dako, Cat. No. […] Wells were incubated for 1 hour at room temperature then washed 3× with 150 μL wash buffer/well. Streptavidin-HRP (Amersham Bioscience, Cat. No. RPN 1231) diluted 1:2000 in diluent buffer was added to all wells and incubated for 45 minutes at room temperature. Wells were washed (3×150 μL wash buffer).

A further test has as its target T3, human IgA (human).
T3 construct: bought preparation coated on the ELISA plate
The test is described as above. The protocol: as §2

A further test deals with T4, human IgG3 (human, UniProt P01860-1 1-377).
T4 construct: bought preparation coated on the ELISA plate; not shown: bought immunoglobulin, light chain not described
The description is as above. The protocol: as §2

Test [2] deals with T1, cynomolgus monkey IgE. As to the kind of experiment: capture ELISA, antibody coated; Test 1, Cyno 7 serum. On the procedure:
as §1

For test [3], the target named is T1, cynomolgus monkey IgE. Description: capture ELISA, antibody coated; Test 1, Cyno 2 serum. The protocol:
as §1

The target of test [4] is T1, cynomolgus monkey IgE. Description: capture ELISA, antibody coated; Test 1, Cyno 4 serum. On the procedure: as §1
Test [5] addresses T1, cynomolgus monkey IgE. Description: capture ELISA, antibody coated; Test 1, Cyno 1 serum. On the procedure:
as §1

Test [6] deals with T1, cynomolgus monkey IgE. As to the kind of experiment: capture ELISA, antibody coated; Test 1, Cyno 6 serum. The protocol: as §1
The target of test [7] is T1, cynomolgus monkey IgE. As to the kind of experiment: capture ELISA, antibody coated; Test 2, Cyno 4 serum. On the procedure: as §1
The target of test [8] is T1, cynomolgus monkey IgE. Description: capture ELISA, antibody coated; Test 2, Cyno 7 serum. The protocol:
as §1

Test [9] deals with T1, cynomolgus monkey IgE. Description: capture ELISA, antibody coated; Test 2, Cyno 5 serum. On the procedure: as §1
The target in test [10] is T1, cynomolgus monkey IgE. As to the kind of experiment: capture ELISA, antibody coated; Test 1, Cyno 3 serum. On the procedure: as §1
The target of test [11] is T1, cynomolgus monkey IgE. Description: capture ELISA, antibody coated; Test 2, Cyno 8 serum. The protocol:
as §1

Test [12] has as its target T1, cynomolgus monkey IgE. As to the kind of experiment: capture ELISA, antibody coated; Test 2, Cyno 1 serum. The protocol: as §1
Test [13] has as its target T1, cynomolgus monkey IgE. Description: capture ELISA, antibody coated; Test 2, Cyno 3 serum. The protocol:
as §1

Test [14] concerns the target T1, cynomolgus monkey IgE. As to the kind of experiment: capture ELISA, antibody coated; Test 2, Cyno 2 serum. The protocol: as §1
In test [15] the target is T1, cynomolgus monkey IgE. Description: capture ELISA, antibody coated; Test 2, Cyno 6 serum. The protocol:
as §1

The target of test [16] is T5, human IgE (full length human immunoglobulin E) (human, UniProt P01854 1-546). Description: serum free IgE depletion ELISA; DIN 0632 experiment 2, initial free IgE 289 ng/mL.
Test [17] concerns the target T5, human IgE (full length human …). As to the kind of experiment: serum free IgE depletion ELISA; DIN 0461, initial free IgE 80 ng/mL.
Test [18] shares this target. Description: serum free IgE depletion ELISA; DIN 0321 experiment 2, initial free IgE 265 ng/mL.
Test [19] shares this target. As to the kind of experiment: serum free IgE depletion ELISA; DIN 0649, initial free IgE 93 ng/mL.
Test [20] shares this target. Description: ELISA, immunoglobulin coated at 4 µg/mL, anti-human IgG2 detection. The protocol:
as §2

For test [21] the target is unchanged. Description: serum free IgE depletion ELISA; DIN 0155, initial free IgE 93 ng/mL.
Test [22] has the same target. As to the kind of experiment: serum free IgE depletion ELISA; DIN 0591, initial free IgE 152 ng/mL.
Test [23] has the same target. Description: serum free IgE depletion ELISA; DIN 0011 experiment 2, initial free IgE 326 ng/mL.
Test [24] has the same target. Description: serum free IgE depletion ELISA; DIN 0623 experiment 2, initial free IgE 133 ng/mL.
The target is the same in test [25]. As to the kind of experiment: serum free IgE depletion ELISA; DIN 0347, initial free IgE 221 ng/mL.
Test [26] shares this target. Description: serum free IgE depletion ELISA; DIN 0451 experiment 2, initial free IgE 534 ng/mL.

T5 sequence (P01854 whole entry): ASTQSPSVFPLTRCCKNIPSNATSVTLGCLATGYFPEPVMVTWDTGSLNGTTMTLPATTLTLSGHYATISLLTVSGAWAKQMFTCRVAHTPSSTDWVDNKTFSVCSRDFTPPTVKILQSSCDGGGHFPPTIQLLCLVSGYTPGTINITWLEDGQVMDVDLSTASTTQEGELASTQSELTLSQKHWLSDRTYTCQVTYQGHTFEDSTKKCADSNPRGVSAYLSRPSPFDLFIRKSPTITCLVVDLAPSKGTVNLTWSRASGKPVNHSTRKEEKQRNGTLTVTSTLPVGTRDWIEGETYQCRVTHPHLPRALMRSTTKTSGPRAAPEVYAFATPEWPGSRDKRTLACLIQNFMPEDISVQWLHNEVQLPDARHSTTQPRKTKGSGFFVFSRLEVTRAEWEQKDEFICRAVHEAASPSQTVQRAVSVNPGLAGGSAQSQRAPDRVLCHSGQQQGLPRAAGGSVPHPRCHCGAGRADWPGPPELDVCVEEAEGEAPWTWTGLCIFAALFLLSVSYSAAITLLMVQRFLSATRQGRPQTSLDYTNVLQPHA
T4 sequence (P01860 other isoform, or with tags, fused parts or gaps): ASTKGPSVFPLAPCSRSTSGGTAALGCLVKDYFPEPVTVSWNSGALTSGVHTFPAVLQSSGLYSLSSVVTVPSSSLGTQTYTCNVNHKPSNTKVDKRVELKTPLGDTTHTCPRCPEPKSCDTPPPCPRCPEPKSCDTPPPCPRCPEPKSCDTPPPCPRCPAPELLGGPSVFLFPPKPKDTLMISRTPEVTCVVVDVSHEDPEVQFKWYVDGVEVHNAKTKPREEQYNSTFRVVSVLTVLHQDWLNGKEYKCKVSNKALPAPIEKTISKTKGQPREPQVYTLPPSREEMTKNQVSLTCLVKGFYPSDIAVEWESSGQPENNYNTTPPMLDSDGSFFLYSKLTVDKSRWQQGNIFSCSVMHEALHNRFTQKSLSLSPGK
T2 sequence (P01857 other isoform, or with tags, fused parts or gaps): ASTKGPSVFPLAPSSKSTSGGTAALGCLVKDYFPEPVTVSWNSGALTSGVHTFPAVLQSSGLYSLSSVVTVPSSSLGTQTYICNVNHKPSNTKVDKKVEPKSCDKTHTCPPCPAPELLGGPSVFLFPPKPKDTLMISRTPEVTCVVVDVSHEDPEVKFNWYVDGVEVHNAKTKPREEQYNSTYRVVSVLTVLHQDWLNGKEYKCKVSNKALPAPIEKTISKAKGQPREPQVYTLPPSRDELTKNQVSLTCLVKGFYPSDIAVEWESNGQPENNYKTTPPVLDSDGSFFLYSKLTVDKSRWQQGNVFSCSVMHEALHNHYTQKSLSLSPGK

B1: recombinant 5.396.1 (antibody, human IgG2, kappa, V domains shown)
VH: QVQLQQWGAGLLKPSETLSLTCAVYGGSFSGYYWSWIRQPPGKGLEWIGEIHHSGSTNYNPSLKSRVTISVDTSKNQFSLKLSSVTAADTAVYYCARDNWNDSFYYYYGMDVWGQGTTVTVSS
VL: DIQMTQSPSSLSASVGDRVTITCRASQGISNHLAWFQQKPGKAPKSLIYAASSLQSGVPSKFSGSGSGTDFTLTISSLQPEDFATYYCQQYNRHPFTFGPGTKVDIKR
notes: human IgG2 kappa, expressed in 293 Freestyle cells; also called 5.396.1 (recombinant)
Regarding B1, the IgE concentration detected with cynomolgus monkey IgE [1] turned out to be 37 ng/mL; in the test with cynomolgus monkey IgE [2], 0 ng/mL; with cynomolgus monkey IgE [3], 0 ng/mL; with cynomolgus monkey IgE [4], 0 ng/mL; with cynomolgus monkey IgE [5], 30 ng/mL; in the test with cynomolgus monkey IgE [6] it was 3 ng/mL. For the same molecule, the A290 nm with human IgG1 stood at 0.07 absorbance; with human IgA, 0.04 absorbance; in the test with human IgG3, 0.05 absorbance.

B2: 5.396.1 Hc-S103N Lc-K61R (antibody, human IgG2, kappa, V domains shown)
VH: QVQLQQWGAGLLKPSETLSLTCAVYGGSFSGYYWSWIRQPPGKGLEWIGEIHHSGSTNYNPSLKSRVTISVDTSKNQFSLKLSSVTAADTAVYYCARDNWNDNFYYYYGMDVWGQGTTVTVSS
VL: DIQMTQSPSSLSASVGDRVTITCRASQGISNHLAWFQQKPGKAPKSLIYAASSLQSGVPSRFSGSGSGTDFTLTISSLQPEDFATYYCQQYNRHPFTFGPGTKVDIKR
notes: human IgG2 kappa; the entries already hold the substitutions S103N (Hc) and K61R (Lc); also called 5.396.1 (S103N/K61R); 5.396.1 N/R
As to B2, the IgE concentration detected in the test with cynomolgus monkey IgE [7] was found to be 0 ng/mL; in the test with cynomolgus monkey IgE [8] it was 0 ng/mL; in the test with cynomolgus monkey IgE [9], 102 ng/mL; with cynomolgus monkey IgE [10] it was 39 ng/mL; with cynomolgus monkey IgE [11] it was 0 ng/mL; in the test with cynomolgus monkey IgE [1], 57 ng/mL. For the same molecule, the IgE concentration detected with cynomolgus monkey IgE [2] is 0 ng/mL; with cynomolgus monkey IgE [12], 57 ng/mL; with cynomolgus monkey IgE [3], 0 ng/mL; with cynomolgus monkey IgE [13], 53 ng/mL; in the test with cynomolgus monkey IgE [14], 39 ng/mL; with cynomolgus monkey IgE [4], 0 ng/mL. For the same molecule, the results for the IgE concentration detected in the test with cynomolgus monkey IgE [5], in the test with cynomolgus monkey IgE [6] and with cynomolgus monkey IgE [15] were 41 ng/mL, 0 ng/mL and 0 ng/mL, respectively. Further, the results for the A290 nm with human IgG1, with human IgA and in the test with human IgG3 were 0.08 absorbance, 0.04 absorbance and 0.05 absorbance, respectively.

B3: 5.948.1 Hc-H100Y (antibody, human IgG2, kappa, V domains shown)
VH: QVQLVQSGAEVKKPGASVKVSCKASGYTFTSYDINWVRQATGQGLEWMGWMDPNSGNTGYAQKFQGRVTMTRNTSISTAYMELSSLRSEDTAVYYCARGYYDSDGYYSFSGMDVWGQGTTVTVSS
VL: not shown
notes: human IgG2 kappa; the heavy chain entry already holds H100Y; also called 5.948.1 H100Y; 5.948.1 (H100Y)
On to B3, for which the IgE concentration detected with cynomolgus monkey IgE [7] worked out at 25 ng/mL; in the test with cynomolgus monkey IgE [8], 0 ng/mL; in the test with cynomolgus monkey IgE [9] it was 420 ng/mL; with cynomolgus monkey IgE [11], 36 ng/mL; in the test with cynomolgus monkey IgE [12], 170 ng/mL; with cynomolgus monkey IgE [13], 178 ng/mL. Besides, the values for the IgE concentration detected with cynomolgus monkey IgE [14] and with cynomolgus monkey IgE [15] were 199 ng/mL and 39 ng/mL, respectively. Further, the IC25ng/mL in test [16] stood at 2.29 µg/mL; in [17], 0.34 µg/mL; in [18], 2.55 µg/mL; in [19], 0.39 µg/mL; in [21], 0.34 µg/mL; in test [22], 0.55 µg/mL. The IC25ng/mL came out at 2.96 µg/mL in test [23], 0.76 µg/mL in [24], 1.33 µg/mL in test [25] and 10.5 µg/mL in [26]. In addition, the A290 nm with human IgG1 stood at 0.06 absorbance; in [20], 1.05 absorbance; with human IgA, 0.05 absorbance; in the test with human IgG3, 0.06 absorbance.

B4: recombinant 6.605.1 (antibody, human IgG2, kappa, V domains shown)
VH: QVHLVQSGAEVKMPGASVKVSCKASGYTFTSYGISWVRQAPGQGLEWMGWISAYNGNTNYAQKLQGRITMTTDTSTSTAYMDLRSLRSDDTAVYYCARDGDYYDPFDYWGQGTLVTVSS
VL: DIQMTQSPSSLSASVGDRVTITCRTSQSISNWLNWYQQKPGKAPKLLIYGASTLKSGVPSRFSGSESGTDFTLTISSLQPEDFATYYCQQSYSTPPTFGQGTKVEIKR
notes: human IgG2 kappa; also called 6.605.1 (recombinant)
For the molecule B4, the IgE concentration detected with cynomolgus monkey IgE [10] worked out at 107 ng/mL; in the test with cynomolgus monkey IgE [1], 140 ng/mL; with cynomolgus monkey IgE [2], 0 ng/mL; with cynomolgus monkey IgE [3], 91 ng/mL; with cynomolgus monkey IgE [4], 0 ng/mL; with cynomolgus monkey IgE [5], 120 ng/mL. In the test with cynomolgus monkey IgE [6], this molecule gave an IgE concentration detected of 0 ng/mL. The values for the A290 nm in the test with human IgG1, in the test with human IgA and in the test with human IgG3 were 0.07 absorbance, 0.04 absorbance and 0.05 absorbance, respectively.

B5: 6.605.1 Hc-H3Q,M13K,D82E Lc-T25A,T53S (antibody, human IgG2, kappa, V domains shown)
VH: QVQLVQSGAEVKKPGASVKVSCKASGYTFTSYGISWVRQAPGQGLEWMGWISAYNGNTNYAQKLQGRITMTTDTSTSTAYMELRSLRSDDTAVYYCARDGDYYDPFDYWGQGTLVTVSS
VL: DIQMTQSPSSLSASVGDRVTITCRASQSISNWLNWYQQKPGKAPKLLIYGASSLKSGVPSRFSGSESGTDFTLTISSLQPEDFATYYCQQSYSTPPTFGQGTKVEIKR
notes: human IgG2 kappa; the entries already hold the substitutions; also called 6.605.1 (H3Q,M13K,D82E-T25A,T53S); 6.605.1 QKE/AS
Consider B5, for which the IgE concentration detected in the test with cynomolgus monkey IgE [10] turned out to be 122 ng/mL; with cynomolgus monkey IgE [1], 173 ng/mL; in the test with cynomolgus monkey IgE [2] it was 0 ng/mL; with cynomolgus monkey IgE [3], 103 ng/mL; with cynomolgus monkey IgE [4], 0 ng/mL; with cynomolgus monkey IgE [5], 133 ng/mL. Further, the A290 nm with human IgG1 was found to be 0.07 absorbance; with human IgA, 0.04 absorbance; in the test with human IgG3, 0.04 absorbance.
